{"source": "patent US20020164791A1", "molecular_target": "endogenous BMP released from the ES cells (BMP4) (mouse) (UniProt P21275)", "sequence (P21275 293-408 limits assumed)": "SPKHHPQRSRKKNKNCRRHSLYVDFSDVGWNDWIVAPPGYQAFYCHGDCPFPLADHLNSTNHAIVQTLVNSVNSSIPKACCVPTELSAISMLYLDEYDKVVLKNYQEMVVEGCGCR", "assay": "cell-based or functional assay"}
{"substance": "mouse Cerberus-like (mCer-1) protein (from UniProt O55233 18-272) (ligand)", "values": [{"measurement": "numbers of primary neural stem cell colonies generated (ES cells in LIF, 20% v/v mCer-1 supernatant)", "value": 50, "unit": "% increase"}]}
